Measured values taken from patent US20100159482A1 (LIFE TECHNOLOGIES, published 2010).
The star is where a group is joined. MeOSuc = COC(=O)CCC(=O)*; CH2Cl = ClC*

B1: MeOSuc-AlaAlaProLeu-CH2Cl (peptide)
peptide: AAPL
HELM: PEPTIDE1{[COC(=O)CCC(=O)[*:2]].A.A.P.L.[ClC[*:1]]}$$$$V2.0
SMILES: COC(=O)CCC(=O)N[C@@H](C)C(=O)N[C@@H](C)C(=O)N1CCC[C@H]1C(=O)N[C@@H](CC(C)C)C(=O)CCl
notes: also called MeOSuc-AAPL-CH2Cl; methoxysuccinyl-AAPL-chloromethyl ketone
B2: MeOSuc-AlaAlaProPhe-CH2Cl (peptide)
peptide: AAPF
HELM: PEPTIDE1{[COC(=O)CCC(=O)[*:2]].A.A.P.F.[ClC[*:1]]}$$$$V2.0
SMILES: COC(=O)CCC(=O)N[C@@H](C)C(=O)N[C@@H](C)C(=O)N1CCC[C@H]1C(=O)N[C@@H](Cc1ccccc1)C(=O)CCl
notes: also called MeOSuc-AAPF-CH2Cl; MSFCK
B3: MeOSuc-AlaAlaAlaProLeu-CH2Cl (peptide)
peptide: AAAPL
HELM: PEPTIDE1{[COC(=O)CCC(=O)[*:2]].A.A.A.P.L.[ClC[*:1]]}$$$$V2.0
SMILES: COC(=O)CCC(=O)N[C@@H](C)C(=O)N[C@@H](C)C(=O)N[C@@H](C)C(=O)N1CCC[C@H]1C(=O)N[C@@H](CC(C)C)C(=O)CCl
notes: also called MeOSuc-AAAPL-CH2Cl; A3PL
B4: MeOSuc-AlaAlaAlaProVal-CH2Cl (peptide)
peptide: AAAPV
HELM: PEPTIDE1{[COC(=O)CCC(=O)[*:2]].A.A.A.P.V.[ClC[*:1]]}$$$$V2.0
SMILES: COC(=O)CCC(=O)N[C@@H](C)C(=O)N[C@@H](C)C(=O)N[C@@H](C)C(=O)N1CCC[C@H]1C(=O)N[C@H](C(=O)CCl)C(C)C
B5: MeOSuc-AlaAlaAlaProPhe-CH2Cl (peptide)
peptide: AAAPF
HELM: PEPTIDE1{[COC(=O)CCC(=O)[*:2]].A.A.A.P.F.[ClC[*:1]]}$$$$V2.0
SMILES: COC(=O)CCC(=O)N[C@@H](C)C(=O)N[C@@H](C)C(=O)N[C@@H](C)C(=O)N1CCC[C@H]1C(=O)N[C@@H](Cc1ccccc1)C(=O)CCl
B6: MeOSuc-AlaProAlaLeu-CH2Cl (peptide)
peptide: APAL
HELM: PEPTIDE1{[COC(=O)CCC(=O)[*:2]].A.P.A.L.[ClC[*:1]]}$$$$V2.0
SMILES: COC(=O)CCC(=O)N[C@@H](C)C(=O)N1CCC[C@H]1C(=O)N[C@@H](C)C(=O)N[C@@H](CC(C)C)C(=O)CCl

biological target: T1, proteinase K (UniProt P06873 106-384); assay: cell-based or functional assay
T1 sequence (P06873 106-384 limits assumed): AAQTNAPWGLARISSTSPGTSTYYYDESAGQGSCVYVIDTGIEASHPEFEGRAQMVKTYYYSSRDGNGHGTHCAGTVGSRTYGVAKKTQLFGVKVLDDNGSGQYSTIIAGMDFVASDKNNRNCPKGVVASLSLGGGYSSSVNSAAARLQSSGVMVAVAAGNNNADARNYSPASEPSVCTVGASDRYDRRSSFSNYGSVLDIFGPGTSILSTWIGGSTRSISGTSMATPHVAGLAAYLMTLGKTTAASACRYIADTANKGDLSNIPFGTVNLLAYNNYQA

Molecule	effective inhibitory concentration, beta-actin RT-qPCR from HeLa cell lysates [mM]	lowest inhibitory concentration in the stopped mixture, indirect linked RT-qPCR assay [mM]
MeOSuc-AAPV-CH2Cl (also called MeOSuc-AAPV-CH2Cl; MSVCK) [methoxysuccinyl-AlaAlaProVal-chloromethyl ketone]	0.5	~0.25
B1	~0.1	–
B2	–	~0.05
B3	~0.1	~0.05
B4	0.5	–
B5	0.1	–
B6	–	~0.5

biological target: T1, proteinase K; assay: computed, not measured: CDOCKER docking on PDB 3PRK, MM-PBSA rescoring, average of three poses
Procedure: Based on the studies cited in the previous examples, a study was carried out to examine the change in total binding free energy of peptide inhibitor to proteinase K to form the peptide-inhibitor complex. The molecular docking of inhibitors MeOSuc-AAPV-CH₂Cl (SEQ ID NO:2), MeOSuc-AAPL-CH₂Cl (SEQ ID NO:10), MeOSuc-AAAPV-CH₂Cl (SEQ ID NO:8), MeOSuc-AAAPL-CH₂Cl (SEQ ID NO:7), MeOSuc-AAAPF-CH₂Cl (SEQ ID NO:9), MeOSuc-AAPA-CH₂Cl (SEQ ID NO:1), and MeOSuc-AAPF-CH₂Cl (SEQ ID NO:5) into the binding site of Proteinase K was performed using CDOCKER of Discovery Studio V2.01 (1. (Accelrys Software Inc., Discovery Studio Modeling Environment, Release 2.01, San Diego: Accelrys Software Inc., 2008., trial version) which uses a CHARMm based Molecular Dynamics docking algorithm. The crystal structure of the protein complex covalently formed between proteinase K and MeOSuc-AAPA-CH₂Cl (SEQ ID NO:1) was used as a starting structure for molecular simulation (PDB CODE: 3PRK; Wolf W M et al. J. Biol. Chem. 1991, 266, 17695). Water molecules were removed from the protein complex, protonated at pH 8.0 and the structure was energy minimized using CHARMm force field with a convergence threshold of 0.05 kcal/mol A. Then, the inhibitor part was removed from the protein complex and was used to build the structures of MeOSuc-AAPV-CH₂Cl (SEQ ID NO:2) (see FIG. 8A), MeOSuc-AAPL-CH₂Cl (SEQ ID NO:10) (see FIG. 9A), MeOSuc-AAAPV-CH₂Cl (SEQ ID NO:8) (see FIG. 8B), MeOSuc-AAAPL-CH₂Cl (SEQ ID NO:7) (see FIG. 9B), MeOSuc-AAAPF-CH₂Cl (SEQ ID NO:9) (see FIG. 11B), MeOSuc-AAPA-CH₂Cl (SEQ ID NO:1) (see FIG. 10), and MeOSuc-AAPF-CH₂Cl (SEQ ID NO:5) (see FIG. 11A). A site sphere with a radius of 13A was created at center of the active site of inhibitor-free proteinase K.
The CDOCKER algorithm can generate several different orientations for each inhibitor in the active site of proteinase K within the site sphere and perform MD-based simulated annealing followed by final minimization. […] The MD simulation for each orientation consisted of 1000 steps at 2 fs per step and at 1000 K. No inherent restrictions were placed on the conformers of inhibitors.

Molecule	ΔΔGBind (total binding free energy, calculated) [kcal/mol]
methoxysuccinyl-AlaAlaProAla-chloromethyl ketone (peptide)	-14.6
MeOSuc-AAPV-CH2Cl (also called MeOSuc-AAPV-CH2Cl; MSVCK) [methoxysuccinyl-AlaAlaProVal-chloromethyl ketone]	-6.63
B1	-12.7
B2	-2.55
B3	-30.9
B4	1.32
B5	9.95
